In patent US20130315910A1 (Xencor, published 2013):

T1: human FcγRIIb receptor protein (R&D Systems) (human, UniProt P31994 46-217)
T1 construct: Bought protein injected over captured antibody in Biacore; also called CD32b
T1 sequence (looked up): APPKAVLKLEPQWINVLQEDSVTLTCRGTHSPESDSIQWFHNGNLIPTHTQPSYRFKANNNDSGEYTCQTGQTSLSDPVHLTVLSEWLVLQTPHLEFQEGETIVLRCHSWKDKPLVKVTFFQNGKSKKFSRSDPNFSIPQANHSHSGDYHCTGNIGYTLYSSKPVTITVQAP

T2: mFcγRIIb (Mus musculus, UniProt P08101)
T2 construct: extracellular region, C-terminal His- and GST-tag; also called mouse FcγRII
T2 sequence (receptor extracellular region, looked up): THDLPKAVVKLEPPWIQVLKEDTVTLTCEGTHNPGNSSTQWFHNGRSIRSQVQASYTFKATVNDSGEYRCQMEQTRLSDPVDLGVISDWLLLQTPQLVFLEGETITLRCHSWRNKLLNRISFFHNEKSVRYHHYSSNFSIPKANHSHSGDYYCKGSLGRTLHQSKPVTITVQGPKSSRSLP

T3: cynoFcγRIIb (Macaca fascicularis, UniProt A0A140HDP4)
T3 construct: extracellular region, C-terminal His- and GST-tag; also called cynomolgus monkey FcγRIIb
T3 sequence (receptor extracellular region): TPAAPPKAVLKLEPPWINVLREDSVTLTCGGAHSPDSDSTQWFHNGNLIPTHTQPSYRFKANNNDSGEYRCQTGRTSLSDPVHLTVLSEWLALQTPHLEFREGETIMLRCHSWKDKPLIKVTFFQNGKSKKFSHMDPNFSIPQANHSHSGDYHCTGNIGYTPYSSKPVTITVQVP

T4: human FcγRIIa (131H), His- and GST-tagged (human, UniProt P12318 34-217)
T4 construct: also called H131 FcγRIIa; HIIa; not shown: 6xHis and GST tags of the pTT5 vector
T4 sequence (looked up): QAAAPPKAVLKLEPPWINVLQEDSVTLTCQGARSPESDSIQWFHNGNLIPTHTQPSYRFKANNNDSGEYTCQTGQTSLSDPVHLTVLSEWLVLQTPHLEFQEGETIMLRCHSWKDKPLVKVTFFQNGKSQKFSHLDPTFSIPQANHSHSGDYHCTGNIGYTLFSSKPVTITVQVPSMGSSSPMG


Tests used:
Test in all cases: SPR
[1] = molecular target: T1, human FcγRIIb receptor protein (R&D …)
Description: (§1) Variants were screened for receptor affinity using Biacore™ technology, also referred to as Biacore herein, a surface plasmon resonance (SPR) based technology for studying biomolecular interactions in real time. SPR measurements were performed using a Biacore 3000 instrument (Biacore, Piscataway, N.J.). A protein A/G (Pierce Biotechnology) CM5 biosensor chip (Biacore) was generated using a standard primary amine coupling protocol. All measurements were performed using HBS-EP buffer (10 mM HEPES pH 7.4, 0.15 M NaCl, 3 mM EDTA, 0.005% vol/vol surfactant P20, Biacore). Antibodies at 20 nM or 50 nM in HBS-EP buffer were immobilized on the protein A/G surface and FcγRs were injected. After each cycle, the surface was regenerated by injecting glycine buffer (10 mM, pH 1.5). Data were processed by zeroing time and response before the injection of FcγR and by subtracting appropriate nonspecific signals (response of reference channel and injection of running buffer). Kinetic analyses were performed by global fitting of binding data with a 1:1 Langmuir binding model using BIAevaluation software (Biacore).

mFcγRIIb = molecular target: T2, mFcγRIIb
Description: as §1
(§2) Variant antibodies were tested for their affinity to mouse or cynologous monkey FcγRs using Biacore SPR as described above. Specifically, antibodies were first immobilized on a protein A/G chip to high density, and then followed by injections of the extracellular domain of the mouse or cynologous monkey FcγR of interest. Both association and dissociation phases were tracked in real time using the Biacore technology.

cynoFcγRIIb = molecular target: T3, cynoFcγRIIb
Description: as §1, §2

[2] = molecular target: T5, human FcγRI receptor protein (R&D Systems) (human, UniProt P12314 16-288)
T5 construct: also called soluble FcγRI; solFcγRI
Description: as §1

[3] = molecular target: T4, human FcγRIIa (131H), His- and …
Description: as §1

T5 sequence (P12314 16-288 limits assumed): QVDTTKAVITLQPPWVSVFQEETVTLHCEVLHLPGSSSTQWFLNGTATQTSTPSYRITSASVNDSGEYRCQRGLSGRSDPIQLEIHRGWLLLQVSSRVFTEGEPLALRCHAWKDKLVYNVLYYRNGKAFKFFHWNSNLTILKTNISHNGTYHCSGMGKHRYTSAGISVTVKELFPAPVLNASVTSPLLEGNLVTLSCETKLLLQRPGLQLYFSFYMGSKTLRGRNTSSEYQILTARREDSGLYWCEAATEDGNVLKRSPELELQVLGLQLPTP

Row | Fold vs WT IgG1 [1] | Kd [1] | Fold vs WT IgG1 (Kd) (mFcγRIIb) | Fold vs WT IgG1 (Kd) (cynoFcγRIIb) | Kd [2] | Kd [3] | Binder
1 | 12.3 fold | 119 nM | 1.48 fold | 4.88 fold | – | – | H268D/L328F/I332E (antibody, human IgG1, kappa, HuAM4G7 anti-CD19 IgG1 (m1) with these Fc substitutions, EU index; copies: 2 + 2) heavy: EVQLVESGGGLVKPGGSLKLSCAASGYTFTSYVMHWVRQAPGKGLEWIGYINPYNDGTKYNEKFQGRVTISSDKSISTAYMELSSLRSEDTAMYYCARGTYYYGTRVFDYWGQGTLVTVSSASTKGPSVFPLAPSSKSTSGGTAALGCLVKDYFPEPVTVSWNSGALTSGVHTFPAVLQSSGLYSLSSVVTVPSSSLGTQTYICNVNHKPSNTKVDKKVEPKSCDKTHTCPPCPAPELLGGPSVFLFPPKPKDTLMISRTPEVTCVVVDVSDEDPEVKFNWYVDGVEVHNAKTKPREEQYNSTYRVVSVLTVLHQDWLNGKEYKCKVSNKAFPAPEEKTISKAKGQPREPQVYTLPPSREEMTKNQVSLTCLVKGFYPSDIAVEWESNGQPENNYKTTPPVLDSDGSFFLYSKLTVDKSRWQQGNVFSCSVMHEALHNHYTQKSLSLSPGK light: DIVMTQSPATLSLSPGERATLSCRSSKSLQNVNGNTYLYWFQQKPGQSPQLLIYRMSNLNSGVPDRFSGSGSGTEFTLTISSLEPEDFAVYYCMQHLEYPITFGAGTKLEIKRTVAAPSVFIFPPSDEQLKSGTASVVCLLNNFYPREAKVQWKVDNALQSGNSQESVTEQDSKDSTYSLSSTLTLSKADYEKHKVYACEVTHQGLSSPVTKSFNRGEC
2 | 8.53 fold | 172 nM | 1.5 fold | 4.16 fold | – | – | H268E/L328Y/I332E (antibody, human IgG1, kappa, HuAM4G7 anti-CD19 IgG1 (m1) with these Fc substitutions, EU index; copies: 2 + 2) heavy: EVQLVESGGGLVKPGGSLKLSCAASGYTFTSYVMHWVRQAPGKGLEWIGYINPYNDGTKYNEKFQGRVTISSDKSISTAYMELSSLRSEDTAMYYCARGTYYYGTRVFDYWGQGTLVTVSSASTKGPSVFPLAPSSKSTSGGTAALGCLVKDYFPEPVTVSWNSGALTSGVHTFPAVLQSSGLYSLSSVVTVPSSSLGTQTYICNVNHKPSNTKVDKKVEPKSCDKTHTCPPCPAPELLGGPSVFLFPPKPKDTLMISRTPEVTCVVVDVSEEDPEVKFNWYVDGVEVHNAKTKPREEQYNSTYRVVSVLTVLHQDWLNGKEYKCKVSNKAYPAPEEKTISKAKGQPREPQVYTLPPSREEMTKNQVSLTCLVKGFYPSDIAVEWESNGQPENNYKTTPPVLDSDGSFFLYSKLTVDKSRWQQGNVFSCSVMHEALHNHYTQKSLSLSPGK light: DIVMTQSPATLSLSPGERATLSCRSSKSLQNVNGNTYLYWFQQKPGQSPQLLIYRMSNLNSGVPDRFSGSGSGTEFTLTISSLEPEDFAVYYCMQHLEYPITFGAGTKLEIKRTVAAPSVFIFPPSDEQLKSGTASVVCLLNNFYPREAKVQWKVDNALQSGNSQESVTEQDSKDSTYSLSSTLTLSKADYEKHKVYACEVTHQGLSSPVTKSFNRGEC
3 | 13.5 fold | 109 nM | 2.63 fold | 3.65 fold | – | – | S267A/L328Y/I332E (antibody, human IgG1, kappa, HuAM4G7 anti-CD19 IgG1 (m1) with these Fc substitutions, EU index; copies: 2 + 2) heavy: EVQLVESGGGLVKPGGSLKLSCAASGYTFTSYVMHWVRQAPGKGLEWIGYINPYNDGTKYNEKFQGRVTISSDKSISTAYMELSSLRSEDTAMYYCARGTYYYGTRVFDYWGQGTLVTVSSASTKGPSVFPLAPSSKSTSGGTAALGCLVKDYFPEPVTVSWNSGALTSGVHTFPAVLQSSGLYSLSSVVTVPSSSLGTQTYICNVNHKPSNTKVDKKVEPKSCDKTHTCPPCPAPELLGGPSVFLFPPKPKDTLMISRTPEVTCVVVDVAHEDPEVKFNWYVDGVEVHNAKTKPREEQYNSTYRVVSVLTVLHQDWLNGKEYKCKVSNKAYPAPEEKTISKAKGQPREPQVYTLPPSREEMTKNQVSLTCLVKGFYPSDIAVEWESNGQPENNYKTTPPVLDSDGSFFLYSKLTVDKSRWQQGNVFSCSVMHEALHNHYTQKSLSLSPGK light: DIVMTQSPATLSLSPGERATLSCRSSKSLQNVNGNTYLYWFQQKPGQSPQLLIYRMSNLNSGVPDRFSGSGSGTEFTLTISSLEPEDFAVYYCMQHLEYPITFGAGTKLEIKRTVAAPSVFIFPPSDEQLKSGTASVVCLLNNFYPREAKVQWKVDNALQSGNSQESVTEQDSKDSTYSLSSTLTLSKADYEKHKVYACEVTHQGLSSPVTKSFNRGEC

Second part, the binder before the results:

Row | Binder | Fold vs WT IgG1 [1] | Kd [1] | Fold vs WT IgG1 (Kd) (mFcγRIIb) | Fold vs WT IgG1 (Kd) (cynoFcγRIIb) | Kd [2] | Kd [3]
4 | S239D/S267E/H268E (antibody, human IgG1, kappa, HuAM4G7 anti-CD19 IgG1 (m1) with these Fc substitutions, EU index; copies: 2 + 2) heavy: EVQLVESGGGLVKPGGSLKLSCAASGYTFTSYVMHWVRQAPGKGLEWIGYINPYNDGTKYNEKFQGRVTISSDKSISTAYMELSSLRSEDTAMYYCARGTYYYGTRVFDYWGQGTLVTVSSASTKGPSVFPLAPSSKSTSGGTAALGCLVKDYFPEPVTVSWNSGALTSGVHTFPAVLQSSGLYSLSSVVTVPSSSLGTQTYICNVNHKPSNTKVDKKVEPKSCDKTHTCPPCPAPELLGGPDVFLFPPKPKDTLMISRTPEVTCVVVDVEEEDPEVKFNWYVDGVEVHNAKTKPREEQYNSTYRVVSVLTVLHQDWLNGKEYKCKVSNKALPAPIEKTISKAKGQPREPQVYTLPPSREEMTKNQVSLTCLVKGFYPSDIAVEWESNGQPENNYKTTPPVLDSDGSFFLYSKLTVDKSRWQQGNVFSCSVMHEALHNHYTQKSLSLSPGK light: DIVMTQSPATLSLSPGERATLSCRSSKSLQNVNGNTYLYWFQQKPGQSPQLLIYRMSNLNSGVPDRFSGSGSGTEFTLTISSLEPEDFAVYYCMQHLEYPITFGAGTKLEIKRTVAAPSVFIFPPSDEQLKSGTASVVCLLNNFYPREAKVQWKVDNALQSGNSQESVTEQDSKDSTYSLSSTLTLSKADYEKHKVYACEVTHQGLSSPVTKSFNRGEC | – | 6.91 nM | – | – | 0.326 nM | 817 nM
5 | S239D/A327D/L328Y (antibody, human IgG1, kappa, HuAM4G7 anti-CD19 IgG1 (m1) with these Fc substitutions, EU index; copies: 2 + 2) heavy: EVQLVESGGGLVKPGGSLKLSCAASGYTFTSYVMHWVRQAPGKGLEWIGYINPYNDGTKYNEKFQGRVTISSDKSISTAYMELSSLRSEDTAMYYCARGTYYYGTRVFDYWGQGTLVTVSSASTKGPSVFPLAPSSKSTSGGTAALGCLVKDYFPEPVTVSWNSGALTSGVHTFPAVLQSSGLYSLSSVVTVPSSSLGTQTYICNVNHKPSNTKVDKKVEPKSCDKTHTCPPCPAPELLGGPDVFLFPPKPKDTLMISRTPEVTCVVVDVSHEDPEVKFNWYVDGVEVHNAKTKPREEQYNSTYRVVSVLTVLHQDWLNGKEYKCKVSNKDYPAPIEKTISKAKGQPREPQVYTLPPSREEMTKNQVSLTCLVKGFYPSDIAVEWESNGQPENNYKTTPPVLDSDGSFFLYSKLTVDKSRWQQGNVFSCSVMHEALHNHYTQKSLSLSPGK light: DIVMTQSPATLSLSPGERATLSCRSSKSLQNVNGNTYLYWFQQKPGQSPQLLIYRMSNLNSGVPDRFSGSGSGTEFTLTISSLEPEDFAVYYCMQHLEYPITFGAGTKLEIKRTVAAPSVFIFPPSDEQLKSGTASVVCLLNNFYPREAKVQWKVDNALQSGNSQESVTEQDSKDSTYSLSSTLTLSKADYEKHKVYACEVTHQGLSSPVTKSFNRGEC | 11.9 fold | 123 nM | 45.3 fold | 1.31 fold | – | –
6 | S267A/H268D/L328Y (antibody, human IgG1, kappa, HuAM4G7 anti-CD19 IgG1 (m1) with these Fc substitutions, EU index; copies: 2 + 2) heavy: EVQLVESGGGLVKPGGSLKLSCAASGYTFTSYVMHWVRQAPGKGLEWIGYINPYNDGTKYNEKFQGRVTISSDKSISTAYMELSSLRSEDTAMYYCARGTYYYGTRVFDYWGQGTLVTVSSASTKGPSVFPLAPSSKSTSGGTAALGCLVKDYFPEPVTVSWNSGALTSGVHTFPAVLQSSGLYSLSSVVTVPSSSLGTQTYICNVNHKPSNTKVDKKVEPKSCDKTHTCPPCPAPELLGGPSVFLFPPKPKDTLMISRTPEVTCVVVDVADEDPEVKFNWYVDGVEVHNAKTKPREEQYNSTYRVVSVLTVLHQDWLNGKEYKCKVSNKAYPAPIEKTISKAKGQPREPQVYTLPPSREEMTKNQVSLTCLVKGFYPSDIAVEWESNGQPENNYKTTPPVLDSDGSFFLYSKLTVDKSRWQQGNVFSCSVMHEALHNHYTQKSLSLSPGK light: DIVMTQSPATLSLSPGERATLSCRSSKSLQNVNGNTYLYWFQQKPGQSPQLLIYRMSNLNSGVPDRFSGSGSGTEFTLTISSLEPEDFAVYYCMQHLEYPITFGAGTKLEIKRTVAAPSVFIFPPSDEQLKSGTASVVCLLNNFYPREAKVQWKVDNALQSGNSQESVTEQDSKDSTYSLSSTLTLSKADYEKHKVYACEVTHQGLSSPVTKSFNRGEC | 10.7 fold | 137 nM | 32.4 fold | 3.26 fold | – | –
